According to US20250154277A1 (CONCEPT TO MEDICINE BIOTECH, published 2025):
Changes are numbered by the printed parent chain.

T1: human 5T4-His protein (human, UniProt Q13641 32-355)
T1 construct: also called recombinant 5T4 protein (human 5T4-his tag); human 5T4 protein; not shown: His tag
T1 sequence (looked up): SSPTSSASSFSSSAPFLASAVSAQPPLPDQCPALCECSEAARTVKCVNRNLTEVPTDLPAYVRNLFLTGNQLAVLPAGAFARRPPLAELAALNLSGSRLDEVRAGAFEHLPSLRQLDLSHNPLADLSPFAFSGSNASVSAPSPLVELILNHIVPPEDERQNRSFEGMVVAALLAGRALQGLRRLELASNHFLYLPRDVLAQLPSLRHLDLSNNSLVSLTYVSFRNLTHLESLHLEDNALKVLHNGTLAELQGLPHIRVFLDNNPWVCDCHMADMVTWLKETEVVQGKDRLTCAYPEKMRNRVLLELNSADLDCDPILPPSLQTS

B1: 393E9_hVH2_hVL1 (antibody, V domains shown)
VH: EVQLVESGGGLIQPGGSLRLSCAASGFTFTDYYMSWVRQPPGKGLEWVGFIRNKGNGYTTENSASVKGRFTISRDNSKSTLYLQMNSLRAEDTAVYYCARYRGNPHYAMDYWGQGTLVTVSS
VL: DIVLTQSPDSLAVSLGERATINCRASESVEFYGTSFLQWYQQKPGQPPKLLIYGASNVESGVPDRFSGSGSGTDFTLTISSLQAEDIAVYFCQQSRKVPSTFGGGTKVEIK
notes: humanized
B2: 393E9_hVH1_hVL4 (antibody, V domains shown)
VH: B1 VH with I12V, P40A
VL: DIVLTQSPLSLPVTPGEPASISCRASESVEFYGTSFLQWYLQKPGQSPQLLIYGASNVESGVPDRFSGSGSGTDFTLKISRVEAEDIGVYFCQQSRKVPSTFGGGTKVEIK
notes: humanized
B3: 393E9_hVH1_hVL2 (antibody, V domains shown)
VH: B1 VH with I12V, P40A
VL: EIVLTQSPATLSVSPGERATLSCRASESVEFYGTSFLQWYQQKPGQAPRLLIYGASNVESGIPARFSGSGSGTEFTLTISSLQSEDIAVYFCQQSRKVPSTFGGGTKVEIK
notes: humanized
B4: 393E9_hVH1_hVL3 (antibody, V domains shown)
VH: B1 VH with I12V, P40A
VL: DIQLTQSPSSLSASVGDRVTITCRASESVEFYGTSFLQWYQQKPGKAPKLLIYGASNVESGVPSRFSGSGSGTDFTLTISSLQPEDIATYFCQQSRKVPSTFGGGTKVEIK
notes: humanized
B5: 393E9_hVH3_hVL2 (antibody, V domains shown)
VH: B1 VH with E1Q, L11V, I12V, P40A
VL: B3 VL
notes: humanized
B6: 393E9_hVH5_hVL3 (antibody, V domains shown)
VH: B1 VH with I12V, G16R, A23T, P40A, T80I, R89K, A90T
VL: B4 VL
notes: humanized; also called Hu393E9-53
B7: 393E9_hVH3_hVL3 (antibody, V domains shown)
VH: B1 VH with E1Q, L11V, I12V, P40A
VL: B4 VL
notes: humanized
B8: 393E9_hVH3_hVL4 (antibody, V domains shown)
VH: B1 VH with E1Q, L11V, I12V, P40A
VL: B2 VL
notes: humanized
B9: 393E9_hVH5_hVL5 (antibody, V domains shown)
VH: B1 VH with I12V, G16R, A23T, P40A, T80I, R89K, A90T
VL: B3 VL with A9G, V13L, A64D, E74D, S81R, Q83E, S84P
notes: humanized
B10: 393E9_hVH3_hVL1 (antibody, V domains shown)
VH: B1 VH with E1Q, L11V, I12V, P40A
VL: B1 VL
notes: humanized
B11: 393E9_hVH6_hVL4 (antibody, V domains shown)
VH: B1 VH with I12V, P40A, S77A, T80S
VL: B2 VL
notes: humanized
B12: 393E9_hVH4_hVL3 (antibody, V domains shown)
VH: B1 VH with I12V, P40A, T80S, R89K, A90T
VL: B4 VL
notes: humanized
B13: 393E9_hVH5_hVL4 (antibody, V domains shown)
VH: B1 VH with I12V, G16R, A23T, P40A, T80I, R89K, A90T
VL: B2 VL
notes: humanized
B14: 393E9_hVH2_hVL3 (antibody, V domains shown)
VH: B1 VH
VL: B4 VL
notes: humanized
B15: 393E9_hVH6_hVL1 (antibody, V domains shown)
VH: B1 VH with I12V, P40A, S77A, T80S
VL: B1 VL
notes: humanized
B16: 393E9_hVH6_hVL2 (antibody, V domains shown)
VH: B1 VH with I12V, P40A, S77A, T80S
VL: B3 VL
notes: humanized; also called Hu393E9-62
B17: 393E9_hVH5_hVL2 (antibody, V domains shown)
VH: B1 VH with I12V, G16R, A23T, P40A, T80I, R89K, A90T
VL: B3 VL
notes: humanized
B18: 393E9_hVH2_hVL4 (antibody, V domains shown)
VH: B1 VH
VL: B2 VL
notes: humanized
B19: 393E9_hVH2_hVL2 (antibody, V domains shown)
VH: B1 VH
VL: B3 VL
notes: humanized
B20: 393E9_hVH3_hVL5 (antibody, V domains shown)
VH: B1 VH with E1Q, L11V, I12V, P40A
VL: B3 VL with A9G, V13L, A64D, E74D, S81R, Q83E, S84P
notes: humanized
B21: 393E9_hVH6_hVL3 (antibody, V domains shown)
VH: B1 VH with I12V, P40A, S77A, T80S
VL: B4 VL
notes: humanized
B22: 393E9_hVH4_hVL5 (antibody, V domains shown)
VH: B1 VH with I12V, P40A, T80S, R89K, A90T
VL: B3 VL with A9G, V13L, A64D, E74D, S81R, Q83E, S84P
notes: humanized; also called Hu393E9-45
B23: 393E9_hVH2_hVL5 (antibody, V domains shown)
VH: B1 VH
VL: B3 VL with A9G, V13L, A64D, E74D, S81R, Q83E, S84P
notes: humanized
B24: 393E9_hVH4_hVL2 (antibody, V domains shown)
VH: B1 VH with I12V, P40A, T80S, R89K, A90T
VL: B3 VL
notes: humanized
B25: 393E9_hVH4_hVL4 (antibody, V domains shown)
VH: B1 VH with I12V, P40A, T80S, R89K, A90T
VL: B2 VL
notes: humanized
B26: 393E9_hVH6_hVL5 (antibody, V domains shown)
VH: B1 VH with I12V, P40A, S77A, T80S
VL: B3 VL with A9G, V13L, A64D, E74D, S81R, Q83E, S84P
notes: humanized
B27: 393E9_hVH1_hVL5 (antibody, V domains shown)
VH: B1 VH with I12V, P40A
VL: B3 VL with A9G, V13L, A64D, E74D, S81R, Q83E, S84P
notes: humanized
B28: 393E9_hVH5_hVL1 (antibody, V domains shown)
VH: B1 VH with I12V, G16R, A23T, P40A, T80I, R89K, A90T
VL: B1 VL
notes: humanized

These binders were tested against T1, human 5T4-His protein (assay: ELISA, coated 5T4-His).
Procedure: To evaluate the binding activity of 393E9 humanized antibodies to human 5T4, the 393E9 chimeric antibody (393E9-C) along with 393E9 humanized mAbs were subjected to ELISA test.
Briefly, microtiter plates were coated with human 5T4-His protein at 1 μg/ml in PBS, 100 μl/well at 4° C. overnight, then blocked with 150 μl/well of 1% BSA. 4-fold dilutions of antibodies starting from 20 nM were added to each well and incubated for 1 hour at 37° C. The plates were washed with PBS/Tween and then incubated with Goat Anti-Human IgG-HRP for 30 mins at 37° C. After washing, the plates were developed with TMB substrate and analyzed by spectrophotometer at OD 450 nm. As shown in FIG. 12 and Table 9, most of the humanized antibodies bound to human 5T4 with high activity.
B1 was tested, and the EC50 was 0.17 nM. B2 showed an EC50 of 0.13 nM. With B3 the EC50 was 0.16 nM. B4 showed an EC50 of 0.085 nM. With B5 the EC50 was 0.2 nM. B6 gave an EC50 of 0.12 nM. In the case of B7, the EC50 is reported as 0.14 nM. With B8 the EC50 was 0.095 nM. With B9 the EC50 was 0.11 nM. Binder B10 has an EC50 of 0.16 nM. In the case of B11, the EC50 is reported as 0.14 nM. B12 gave an EC50 of 0.13 nM. Work on B13 yielded an EC50 of 0.17 nM. B14 was tested, and the EC50 was 0.11 nM. Work on B15 yielded an EC50 of 0.11 nM. B16 was tested, and the EC50 was 0.11 nM. For B17, the EC50 was 0.27 nM. B18 gave an EC50 of 0.12 nM. With B19 the EC50 was 0.12 nM. B20 was tested, and the EC50 was 0.12 nM. With B21 the EC50 was 0.052 nM. B22 gave an EC50 of 0.22 nM. B23 gave an EC50 of 0.11 nM. B24 showed an EC50 of 0.12 nM. B25 was tested, and the EC50 was 0.16 nM. Binder B26 has an EC50 of 0.19 nM. With B27 the EC50 was 0.13 nM. In the case of B28, the EC50 is reported as 0.16 nM.

Each binder was assayed against T1, human 5T4-His protein (assay: SPR Biacore, Protein A capture).
Procedure: The binding of the 393E9 humanized antibodies to recombinant 5T4 protein (human 5T4-his tag) was tested with Biacore using a capture method. The mAbs were captured using Protein A chip. A serial dilution of human 5T4-his tag protein was injected over captured antibody for 3 mins at a flow rate of 30 μl/min. The antigen was allowed to dissociate for 280-800 s. All the experiments were carried out on a Biacore T200. Data analysis was carried out using the Biacore T200 evaluation software.
With B1 the Kd was 0.547 nM, the koff was 0.000104 s⁻¹ and the kon was 190000 M⁻¹ s⁻¹. B2 showed a Kd of 0.599 nM, a koff of 0.000119 s⁻¹ and a kon of 199000 M⁻¹ s⁻¹. In the case of B6, the Kd is reported as 0.7 nM, the koff is reported as 0.000119 s⁻¹ and the kon is reported as 170000 M⁻¹ s⁻¹. Work on B7 yielded a Kd of 0.574 nM, a koff of 0.000111 s⁻¹ and a kon of 193000 M⁻¹ s⁻¹. Work on B8 yielded a Kd of 0.573 nM, a koff of 0.000123 s⁻¹ and a kon of 215000 M⁻¹ s⁻¹. In the case of B9, the Kd is reported as 0.598 nM, the koff is reported as 0.000121 s⁻¹ and the kon is reported as 202000 M⁻¹ s⁻¹. Work on B10 yielded a Kd of 0.506 nM, a koff of 0.000108 s⁻¹ and a kon of 213000 M⁻¹ s⁻¹. Binder B12 has a Kd of 0.706 nM, a koff of 0.000128 s⁻¹ and a kon of 181000 M⁻¹ s⁻¹. In the case of B13, the Kd is reported as 0.679 nM, the koff is reported as 0.000125 s⁻¹ and the kon is reported as 184000 M⁻¹ s⁻¹. B14 gave a Kd of 0.684 nM, a koff of 0.00012 s⁻¹ and a kon of 174000 M⁻¹ s⁻¹. B16 was tested, and the Kd was 0.687 nM, the koff was 0.000137 s⁻¹ and the kon was 199000 M⁻¹ s⁻¹. B18 showed a Kd of 0.65 nM, a koff of 0.000127 s⁻¹ and a kon of 195000 M⁻¹ s⁻¹. Work on B19 yielded a Kd of 0.594 nM, a koff of 0.00012 s⁻¹ and a kon of 201000 M⁻¹ s⁻¹. For B20, the Kd was 0.502 nM, the koff was 0.00012 s⁻¹ and the kon was 238000 M⁻¹ s⁻¹. B21 showed a Kd of 0.691 nM, a koff of 0.000124 s⁻¹ and a kon of 179000 M⁻¹ s⁻¹. B22 gave a Kd of 0.595 nM, a koff of 0.000129 s⁻¹ and a kon of 217000 M⁻¹ s⁻¹. With B23 the Kd was 0.56 nM, the koff was 0.000122 s⁻¹ and the kon was 217000 M⁻¹ s⁻¹. Work on B24 yielded a Kd of 0.603 nM, a koff of 0.000123 s⁻¹ and a kon of 204000 M⁻¹ s⁻¹. B26 showed a Kd of 0.574 nM, a koff of 0.000122 s⁻¹ and a kon of 212000 M⁻¹ s⁻¹. Binder B27 has a Kd of 0.515 nM, a koff of 0.000112 s⁻¹ and a kon of 217000 M⁻¹ s⁻¹.
